For one molecule, binding result and Kd results are on record in patent US20130079286A1 (Pieris, published 2013).

The term Kd denotes the free concentration of one partner at which half of the binding sites on the other are occupied at equilibrium, for simple one-to-one binding. Higher therefore signals a looser complex.

For experiment [1], the target named is T1, Aβ40 peptide, non-labeled (human).
T1 construct: Non-labeled synthetic peptide (W. M. Keck Laboratory); also called Abeta40; amyloid beta peptide
T1 sequence (peptide, as listed by the source): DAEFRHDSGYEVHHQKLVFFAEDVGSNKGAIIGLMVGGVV
As to the kind of experiment: SPOT membrane of overlapping Aβ40 peptides, 50 nM mutein.

The target in another experiment is T2, MBP-Aβ40 fusion protein.
T2 construct: the entry may be a nucleic acid; Biotin-labelled in the capture ELISA, unlabeled in the direct ELISA and SPR; also called MBP-Abeta40
The experiment in a line: SPR (Biacore X), MBP-Aβ40 amine-coupled, mutein as analyte. As for the experimental part:
Real time analysis of Lcn2 muteins was performed on a Biacore X system (Biacore, Uppsala, Sweden) using PBS/T (PBS containing 0.005% (v/v) Tween 20) as running buffer. A 50 μg/mL solution of MBP-Aβ40 from Example 2 in 10 mM Na-acetate, pH 4.5 was immobilized onto a […] chip (Xantec, Düsseldorf, Germany) using standard amine coupling chemistry, resulting in a ligand density of 1455 resonance units (RU). […] The sensorgrams were corrected by subtraction of the corresponding signals measured for the control channel, which had been activated and blocked with ethanolamine. […] During this step the kₒₙ and koff rates were fitted globally, while the maximum response difference Rₘₐₓ was fitted locally for each curve.
In general terms: In SPR one partner is held on a chip, and binding of the other changes the refractive index at the surface.

In another experiment the target is T3, Trx-Aβ28 fusion protein (Escherichia coli (strain K12), UniProt P0AA25 1-76 = thioredoxin, Biotin-labelled through an NHS ester (2:1) in the capture and competitive ELISAs; unlabeled in the direct ELISA and as competitor.).
T3 construct: the entry may be a nucleic acid; also called TrxAbeta28H6
As to the kind of experiment: capture ELISA: mutein captured, biotinylated Trx-Aβ28 titrated. As for the experimental part:
FIG. 5 depicts the binding activity of the Lcn2 muteins H1-G1, S1-A4, and US7 in capture ELISAs with different biotinylated Aβ targets. StrepMAB-Immo at 10 μg/ml was immobilized on microtitre plates and employed for capturing of 1 JAM Lcn2 muteins via the Strep-tag H. In figures A to C the binding of the Lcn2 muteins S1-A4 and US7 to (A) biotinylated Aβ40, (B) biotinylated Trx-Aβ28, and (C) biotinylated MBP-Aβ40 are shown. Binding was detected by incubation with ExtrAvidin/AP and a subsequent chromogenic reaction with pNPP. Ovalbumin (Ova), thioredoxin (Trx), and maltose binding protein (MBP) were used as negative controls. Additionally, binding of wild-type (wt) lipocalin was tested. The data were fitted to a monovalent binding model.
For selective capturing of the Lcn2 muteins carrying the C-terminal Strep-tag II (Schmidt and Skerra (2007) Nat. Protoc. 2, 1528-1535), a 96-well MaxiSorp polystyrene microtitre plate (Nunc, Langenselbold, Germany) was coated with 10 μg/mL StrepMAB-Immo (IBA, Göttingen, Germany) in PBS over night at 4° C. and blocked with 3% (w/v) BSA in PBS/T at room temperature for 1 h. After 3 washing steps with PBS/T, 50 μL of a 1 μM solution of the purified Lcn2 muteins from Example 7 were applied to all wells for 1 h. After washing, 50 μL of a dilution series of the biotinylated targets Aβ40, MBP-Aβ40 or Trx-Aβ28 from Example 2 were added and incubated for 1 h whereby the biotinylated forms of Ova, MBP and Trx from Example 2 served as negative control proteins. The wells were washed again and bound conjugate was detected with 50 μL of ExtrAvidin/AP conjugate (Sigma-Aldrich, Steinheim, Germany) diluted 1:5000 in PBS/T for 1 h, followed by signal development in the presence of 100 μL 0.5 mg/mL p-nitrophenyl phosphate (AppliChem, Darmstadt, Germany) in 100 mM Tris/HCl, pH 8.8, 100 mM NaCl, 5 mM MgCl₂.
(In general: ELISA stands for enzyme-linked immunosorbent assay.)

B1: Lcn2 mutein S1-A4 (designed binder)
chain: QDSTSDLIPAPPLSKVPLQQNFQDNQFHGKWYVVGVAGNYTLREDKDPLKMYATIYELKEDKSYNVTSVGFRLKKCNYKIRTFVPGSQPGEFTLGIIKSQPGMTSYLVRVVSTNYNQHAMVFFKTVGQNREMFNITLYGRTKELTSELKENFIRFSKSLGLPENHIVFPVPIDQCIDG
Take B1: the binding result in experiment [1] was “binds”. The values for the Kd in the experiment with MBP-Aβ40 fusion protein and with Trx-Aβ28 fusion protein were 1.7 nM and 1.9 nM, respectively.
